Test results published in publication PMC9352680, “A comprehensive thermodynamic model for RNA binding by the Saccharomyces cerevisiae Pumilio protein PUF4”.

T1: PUF4 RNA-binding domain (Saccharomyces cerevisiae, UniProt P25339 537-888)
T1 sequence: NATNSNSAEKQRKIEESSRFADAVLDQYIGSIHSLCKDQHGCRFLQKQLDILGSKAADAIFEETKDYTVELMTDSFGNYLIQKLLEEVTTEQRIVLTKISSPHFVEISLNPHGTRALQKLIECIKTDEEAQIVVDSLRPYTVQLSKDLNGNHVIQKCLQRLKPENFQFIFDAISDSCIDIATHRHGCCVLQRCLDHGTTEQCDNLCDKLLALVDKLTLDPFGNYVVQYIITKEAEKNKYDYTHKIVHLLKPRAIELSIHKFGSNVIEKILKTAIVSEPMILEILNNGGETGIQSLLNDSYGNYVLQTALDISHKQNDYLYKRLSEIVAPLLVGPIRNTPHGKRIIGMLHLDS


Target: T1, PUF4 RNA-binding domain
Experiment: Mg; RNA-MaP; 20 mM Na-HEPES pH 7.4, 30 mM KOAc, 0.75 mM MgCl2, 0.1% Tween-20, 5% glycerol, 0.1 mg/mL BSA, 2 mM DTT; 25 C; 0.0125-409.6 nM protein
Settings: tags: N-His6-TEV cleaved; C-SNAP kept, Cy3B-labelled; label: tethered on chip by stalled RNA polymerase

Row | Binder | Kd [nM]
1 | UCUCUUUAUAUAUAUUACCUCUCUU (ssRNA) [Id_ii_S1_P4E.3_K4.2_C4.2_[C-2T]_[T-1A]_H4.2_A4.1_F4.1_T4.2_[G10C]_[T11C]] | 29.6
2 | UCUCUUUUUAUAUAUUAUAUCUCUU (ssRNA) [Id_ii_S1_P4E.3_K4.2_C4.2_[C-2T]_H4.2_A4.1_F4.1_T4.2_[G10T]_[T11A]] | 22.2
3 | UCUCUUUGUGUUUUAUCUCUU (ssRNA) [Ib_S1_P4E.1_K4.1_C4.1_H4.1_[A4G]_A4.1_[A6T]_F4.1_T4.1] | 13.1
4 | UCUCUUUGUCUGUUAUCUCUU (ssRNA) [Ib_S1_P4E.1_K4.1_C4.1_H4.1_[A4C]_A4.1_[A6G]_F4.1_T4.1] | 626
5 | UCUCUUUGUAUAUAUUAGUUCUCUU (ssRNA) [Id_ii_S1_P4E.3_K4.2_C4.2_[C-2T]_[T-1G]_H4.2_A4.1_F4.1_T4.2] | 3.67
6 | UCUCUUUCUAUAUAUUAAGUCUCUU (ssRNA) [Id_ii_S1_P4E.3_K4.2_C4.2_[C-2T]_[T-1C]_H4.2_A4.1_F4.1_T4.2_[G10A]_[T11G]] | 130
7 | UCUCUUGUUAUAUAUUAUUUCUCUU (ssRNA) [Id_ii_S1_P4E.3_K4.2_C4.2_[C-2G]_H4.2_A4.1_F4.1_T4.2_[G10T]] | 22.3
8 | UCUCUUGCUAUAUAUUAAUUCUCUU (ssRNA) [Id_ii_S1_P4E.3_K4.2_C4.2_[C-2G]_[T-1C]_H4.2_A4.1_F4.1_T4.2_[G10A]] | 70.2
9 | UCUCUUGUUAUAUAUUACUUCUCUU (ssRNA) [Id_ii_S1_P4E.3_K4.2_C4.2_[C-2G]_H4.2_A4.1_F4.1_T4.2_[G10C]] | 16.9
10 | UCUCUUUUUAUAUAUUACCUCUCUU (ssRNA) [Id_ii_S1_P4E.3_K4.2_C4.2_[C-2T]_H4.2_A4.1_F4.1_T4.2_[G10C]_[T11C]] | 26.2
11 | UCUCUUUGUAUAUAUUAGGUCUCUU (ssRNA) [Id_ii_S1_P4E.3_K4.2_C4.2_[C-2T]_[T-1G]_H4.2_A4.1_F4.1_T4.2_[T11G]] | 7.71
12 | UCUCUUUAUAUAUAUUAACUCUCUU (ssRNA) [Id_ii_S1_P4E.3_K4.2_C4.2_[C-2T]_[T-1A]_H4.2_A4.1_F4.1_T4.2_[G10A]_[T11C]] | 15.7
13 | UCUCUUUUUAUAUAUUACUUCUCUU (ssRNA) [Id_ii_S1_P4E.3_K4.2_C4.2_[C-2T]_H4.2_A4.1_F4.1_T4.2_[G10C]] | 21
14 | UCUCUUUUUAUAUAUUAGGUCUCUU (ssRNA) [Id_ii_S1_P4E.3_K4.2_C4.2_[C-2T]_H4.2_A4.1_F4.1_T4.2_[T11G]] | 22.6
15 | UCUCUUUCUAUAUAUUACAUCUCUU (ssRNA) [Id_ii_S1_P4E.3_K4.2_C4.2_[C-2T]_[T-1C]_H4.2_A4.1_F4.1_T4.2_[G10C]_[T11A]] | 23.1
16 | UCUCUUUUUAUAUAUUAGUUCUCUU (ssRNA) [Id_ii_S1_P4E.3_K4.2_C4.2_[C-2T]_H4.2_A4.1_F4.1_T4.2] | 8.51
17 | UCUCUUUGUGUGUUAUCUCUU (ssRNA) [Ib_S1_P4E.1_K4.1_C4.1_H4.1_[A4G]_A4.1_[A6G]_F4.1_T4.1] | 43.8
18 | UCUCUUUGUAUAUAUUAAGUCUCUU (ssRNA) [Id_ii_S1_P4E.3_K4.2_C4.2_[C-2T]_[T-1G]_H4.2_A4.1_F4.1_T4.2_[G10A]_[T11G]] | 8.46
19 | UCUCUUUCUAUAUAUUAUAUCUCUU (ssRNA) [Id_ii_S1_P4E.3_K4.2_C4.2_[C-2T]_[T-1C]_H4.2_A4.1_F4.1_T4.2_[G10T]_[T11A]] | 34.9

Row | Binder | Kd [nM]
20 | UCUCUUUGUAUUAGUAUCUCUU (ssRNA) [Ia_S1_P5E.1_K5.1_C5.1_H5.1_A5.1_F5.1_[T8G]_T5.1] | 18.2
21 | UCUCUUUUUAUAUAUUAAAUCUCUU (ssRNA) [Id_ii_S1_P4E.3_K4.2_C4.2_[C-2T]_H4.2_A4.1_F4.1_T4.2_[G10A]_[T11A]] | 55.1
22 | UCUCUUUAUAUAUAUUAGUUCUCUU (ssRNA) [Id_ii_S1_P4E.3_K4.2_C4.2_[C-2T]_[T-1A]_H4.2_A4.1_F4.1_T4.2] | 9.8
23 | UCUCUUUAUAUAUAUUAAAUCUCUU (ssRNA) [Id_ii_S1_P4E.3_K4.2_C4.2_[C-2T]_[T-1A]_H4.2_A4.1_F4.1_T4.2_[G10A]_[T11A]] | 38.1
24 | UCUCUUUUUAUAUAUUAAUUCUCUU (ssRNA) [Id_ii_S1_P4E.3_K4.2_C4.2_[C-2T]_H4.2_A4.1_F4.1_T4.2_[G10A]] | 28.9
25 | UCUCUUUCUAUAUAUUACCUCUCUU (ssRNA) [Id_ii_S1_P4E.3_K4.2_C4.2_[C-2T]_[T-1C]_H4.2_A4.1_F4.1_T4.2_[G10C]_[T11C]] | 25.2
26 | UCUCUUUCUAUAUAUUAUCUCUCUU (ssRNA) [Id_ii_S1_P4E.3_K4.2_C4.2_[C-2T]_[T-1C]_H4.2_A4.1_F4.1_T4.2_[G10T]_[T11C]] | 17.2
27 | UCUCUUGUUAUAUAUUAUCUCUCUU (ssRNA) [Id_ii_S1_P4E.3_K4.2_C4.2_[C-2G]_H4.2_A4.1_F4.1_T4.2_[G10T]_[T11C]] | 12.5
28 | UCUCUUUCUAUAUAUUAAUUCUCUU (ssRNA) [Id_ii_S1_P4E.3_K4.2_C4.2_[C-2T]_[T-1C]_H4.2_A4.1_F4.1_T4.2_[G10A]] | 39.7
29 | UCUCUUGUUAUAUAUUACCUCUCUU (ssRNA) [Id_ii_S1_P4E.3_K4.2_C4.2_[C-2G]_H4.2_A4.1_F4.1_T4.2_[G10C]_[T11C]] | 13
30 | UCUCUUUGUAUAUAUUAACUCUCUU (ssRNA) [Id_ii_S1_P4E.3_K4.2_C4.2_[C-2T]_[T-1G]_H4.2_A4.1_F4.1_T4.2_[G10A]_[T11C]] | 2.38
31 | UCUCUUUGUAUAUAUUAGCUCUCUU (ssRNA) [Id_ii_S1_P4E.3_K4.2_C4.2_[C-2T]_[T-1G]_H4.2_A4.1_F4.1_T4.2_[T11C]] | 3.46
32 | UCUCUUUAUAUAUAUUAGCUCUCUU (ssRNA) [Id_ii_S1_P4E.3_K4.2_C4.2_[C-2T]_[T-1A]_H4.2_A4.1_F4.1_T4.2_[T11C]] | 12.7
33 | UCUCUUGCUAUAUAUUAAAUCUCUU (ssRNA) [Id_ii_S1_P4E.3_K4.2_C4.2_[C-2G]_[T-1C]_H4.2_A4.1_F4.1_T4.2_[G10A]_[T11A]] | 126
34 | UCUCUUUAUAUAUAUUACUUCUCUU (ssRNA) [Id_ii_S1_P4E.3_K4.2_C4.2_[C-2T]_[T-1A]_H4.2_A4.1_F4.1_T4.2_[G10C]] | 20.6
35 | UCUCUUGUUAUAUAUUAAAUCUCUU (ssRNA) [Id_ii_S1_P4E.3_K4.2_C4.2_[C-2G]_H4.2_A4.1_F4.1_T4.2_[G10A]_[T11A]] | 26.8
36 | UCUCUUUUUAUAUAUUACGUCUCUU (ssRNA) [Id_ii_S1_P4E.3_K4.2_C4.2_[C-2T]_H4.2_A4.1_F4.1_T4.2_[G10C]_[T11G]] | 30.1
37 | UCUCUUUUUAUAUAUUAUGUCUCUU (ssRNA) [Id_ii_S1_P4E.3_K4.2_C4.2_[C-2T]_H4.2_A4.1_F4.1_T4.2_[G10T]_[T11G]] | 17.9
38 | UCUCUUUAUAUAUAUUACAUCUCUU (ssRNA) [Id_ii_S1_P4E.3_K4.2_C4.2_[C-2T]_[T-1A]_H4.2_A4.1_F4.1_T4.2_[G10C]_[T11A]] | 28.9

Row | Binder | Kd [nM]
39 | UCUCUUUGUAUAUAUUAAUUCUCUU (ssRNA) [Id_ii_S1_P4E.3_K4.2_C4.2_[C-2T]_[T-1G]_H4.2_A4.1_F4.1_T4.2_[G10A]] | 4.75
40 | UCUCUUUUUAUAUAUUAAGUCUCUU (ssRNA) [Id_ii_S1_P4E.3_K4.2_C4.2_[C-2T]_H4.2_A4.1_F4.1_T4.2_[G10A]_[T11G]] | 485
41 | UCUCUUUGUAUAUAUUAUUUCUCUU (ssRNA) [Id_ii_S1_P4E.3_K4.2_C4.2_[C-2T]_[T-1G]_H4.2_A4.1_F4.1_T4.2_[G10T]] | 4.46
42 | UCUCUUGUUAUAUAUUAUGUCUCUU (ssRNA) [Id_ii_S1_P4E.3_K4.2_C4.2_[C-2G]_H4.2_A4.1_F4.1_T4.2_[G10T]_[T11G]] | 15.3
43 | UCUCUUUCUAUAUAUUACGUCUCUU (ssRNA) [Id_ii_S1_P4E.3_K4.2_C4.2_[C-2T]_[T-1C]_H4.2_A4.1_F4.1_T4.2_[G10C]_[T11G]] | 30.7
44 | UCUCUUUAUAUAUAUUAUCUCUCUU (ssRNA) [Id_ii_S1_P4E.3_K4.2_C4.2_[C-2T]_[T-1A]_H4.2_A4.1_F4.1_T4.2_[G10T]_[T11C]] | 24.5
45 | UCUCUUUUUAUAUAUUAACUCUCUU (ssRNA) [Id_ii_S1_P4E.3_K4.2_C4.2_[C-2T]_H4.2_A4.1_F4.1_T4.2_[G10A]_[T11C]] | 31.8
46 | UCUCUUUCUAUAUAUUAAAUCUCUU (ssRNA) [Id_ii_S1_P4E.3_K4.2_C4.2_[C-2T]_[T-1C]_H4.2_A4.1_F4.1_T4.2_[G10A]_[T11A]] | 61.2
47 | UCUCUUUCUAUAUAUUACUUCUCUU (ssRNA) [Id_ii_S1_P4E.3_K4.2_C4.2_[C-2T]_[T-1C]_H4.2_A4.1_F4.1_T4.2_[G10C]] | 23.8
48 | UCUCUUUUUAUAUAUUAUCUCUCUU (ssRNA) [Id_ii_S1_P4E.3_K4.2_C4.2_[C-2T]_H4.2_A4.1_F4.1_T4.2_[G10T]_[T11C]] | 19.8
49 | UCUCUUUGUUAAUUAUCUCUU (ssRNA) [Ib_S1_P4E.1_K4.1_C4.1_H4.1_[A4T]_A4.1_[T5A]_F4.1_T4.1] | 43.5
50 | UCUCUUAGUAUAUAUUAUCUCUCUU (ssRNA) [Id_ii_S1_P4E.3_K4.2_C4.2_[C-2A]_[T-1G]_H4.2_A4.1_F4.1_T4.2_[G10T]_[T11C]] | 43
51 | UCUCUUUGUAUAUAUUAUCUCUCUU (ssRNA) [Id_ii_S1_P4E.3_K4.2_C4.2_[C-2T]_[T-1G]_H4.2_A4.1_F4.1_T4.2_[G10T]_[T11C]] | 4.63
52 | UCUCUUUCUAUAUAUUAUUUCUCUU (ssRNA) [Id_ii_S1_P4E.3_K4.2_C4.2_[C-2T]_[T-1C]_H4.2_A4.1_F4.1_T4.2_[G10T]] | 21.6
53 | UCUCUUUAUAUAUAUUACGUCUCUU (ssRNA) [Id_ii_S1_P4E.3_K4.2_C4.2_[C-2T]_[T-1A]_H4.2_A4.1_F4.1_T4.2_[G10C]_[T11G]] | 21.9
54 | UCUCUUUUUAUAUAUUAGCUCUCUU (ssRNA) [Id_ii_S1_P4E.3_K4.2_C4.2_[C-2T]_H4.2_A4.1_F4.1_T4.2_[T11C]] | 10.3
55 | UCUCUUGUUAUAUAUUAGUUCUCUU (ssRNA) [Id_ii_S1_P4E.3_K4.2_C4.2_[C-2G]_H4.2_A4.1_F4.1_T4.2] | 8.13
56 | UCUCUUGUUAUAUAUUAAUUCUCUU (ssRNA) [Id_ii_S1_P4E.3_K4.2_C4.2_[C-2G]_H4.2_A4.1_F4.1_T4.2_[G10A]] | 21
57 | UCUCUUUGUUCAUUAUCUCUU (ssRNA) [Ib_S1_P4E.1_K4.1_C4.1_H4.1_[A4T]_A4.1_[T5C]_F4.1_T4.1] | 21.1
